Laboratory results reported in paper PMC6483157, “Structure of the human ClC-1 chloride channel” (PLoS Biology, 2019).

Target: the molecule itself
Experiment: cryo-EM structure; single-particle cryo-EM of purified ClC-1 in amphipol PMAL-C8; 20 mM Tris pH 7.5, 100 mM NaCl, 0.2 mM TCEP, no nucleotides or antibodies; also 20 mM BisTris pH 6.2 with 0.3 mM NAD; C2 symmetry applied

B1: human ClC-1 chloride channel (natural protein, UniProt P35523 1-988, looked up)
chain: MEQSRSQQRGGEQSWWGSDPQYQYMPFEHCTSYGLPSENGGLQHRLRKDAGPRHNVHPTQIYGHHKEQFSDREQDIGMPKKTGSSSTVDSKDEDHYSKCQDCIHRLGQVVRRKLGEDGIFLVLLGLLMALVSWSMDYVSAKSLQAYKWSYAQMQPSLPLQFLVWVTFPLVLILFSALFCHLISPQAVGSGIPEMKTILRGVVLKEYLTMKAFVAKVVALTAGLGSGIPVGKEGPFVHIASICAAVLSKFMSVFCGVYEQPYYYSDILTVGCAVGVGCCFGTPLGGVLFSIEVTSTYFAVRNYWRGFFAATFSAFVFRVLAVWNKDAVTITALFRTNFRMDFPFDLKELPAFAAIGICCGLLGAVFVYLHRQVMLGVRKHKALSQFLAKHRLLYPGIVTFVIASFTFPPGMGQFMAGELMPREAISTLFDNNTWVKHAGDPESLGQSAVWIHPRVNVVIIIFLFFVMKFWMSIVATTMPIPCGGFMPVFVLGAAFGRLVGEIMAMLFPDGILFDDIIYKILPGGYAVIGAAALTGAVSHTVSTAVICFELTGQIAHILPMMVAVILANMVAQSLQPSLYDSIIQVKKLPYLPDLGWNQLSKYTIFVEDIMVRDVKFVSASYTYGELRTLLQTTTVKTLPLVDSKDSMILLGSVERSELQALLQRHLCPERRLRAAQEMARKLSELPYDGKARLAGEGLPGAPPGRPESFAFVDEDEDEDLSGKSELPPSLALHPSTTAPLSPEEPNGPLPGHKQQPEAPEPAGQRPSIFQSLLHCLLGRARPTKKKTTQDSTDLVDNMSPEEIEAWEQEQLSQPVCFDSCCIDQSPFQLVEQTTLHKTHTLFSLLGLHLAYVTSMGKLRGVLALEELQKAIEGHTKSGVQLRPPLASFRNTTSTRKSTGAPPSSAENWNLPEDRPGATGTGDVIAASPETPVPSPSPEPPLSLAPGKVEGELEELELVESPGLEEELADILQGPSLRSTDEEDEDELIL
notes: human ClC-1 chloride channel, full length, from yeast codon-optimized cDNA; followed by a TEV cleavage site, GFP and His10; released from the Ni-beads by TEV protease; The models cover only part of the chain: membrane domain residues 115-589 (loop 254-261 missing) and trimmed CBS domains; The N terminus and helix A are not resolved; source: yeast strain PAP1500 (pEMBLyex4), 15-L bioreactors; …
B1: binds.
